Measurements as given in article PMC9890227.

Columns and labels:
Experiment in all cases: EMSA
MutLgamma (MLH1-MLH3) = MutLgamma (MLH1-MLH3) (Homo sapiens, UniProt P40692;Q9UHC1 1-756;1-1453)
MutLbeta (MLH1-PMS1) = MutLbeta (MLH1-PMS1) (Homo sapiens, UniProt P40692;P54277 1-756;1-932)
MutSbeta (MSH2-MSH3) = MutSbeta (MSH2-MSH3) (Homo sapiens, UniProt P43246;P20585 1-934;1-1137)

Measured: binding result

Sequence of MutLgamma (MLH1-MLH3) (P40692 whole entry, chain 1 of 2): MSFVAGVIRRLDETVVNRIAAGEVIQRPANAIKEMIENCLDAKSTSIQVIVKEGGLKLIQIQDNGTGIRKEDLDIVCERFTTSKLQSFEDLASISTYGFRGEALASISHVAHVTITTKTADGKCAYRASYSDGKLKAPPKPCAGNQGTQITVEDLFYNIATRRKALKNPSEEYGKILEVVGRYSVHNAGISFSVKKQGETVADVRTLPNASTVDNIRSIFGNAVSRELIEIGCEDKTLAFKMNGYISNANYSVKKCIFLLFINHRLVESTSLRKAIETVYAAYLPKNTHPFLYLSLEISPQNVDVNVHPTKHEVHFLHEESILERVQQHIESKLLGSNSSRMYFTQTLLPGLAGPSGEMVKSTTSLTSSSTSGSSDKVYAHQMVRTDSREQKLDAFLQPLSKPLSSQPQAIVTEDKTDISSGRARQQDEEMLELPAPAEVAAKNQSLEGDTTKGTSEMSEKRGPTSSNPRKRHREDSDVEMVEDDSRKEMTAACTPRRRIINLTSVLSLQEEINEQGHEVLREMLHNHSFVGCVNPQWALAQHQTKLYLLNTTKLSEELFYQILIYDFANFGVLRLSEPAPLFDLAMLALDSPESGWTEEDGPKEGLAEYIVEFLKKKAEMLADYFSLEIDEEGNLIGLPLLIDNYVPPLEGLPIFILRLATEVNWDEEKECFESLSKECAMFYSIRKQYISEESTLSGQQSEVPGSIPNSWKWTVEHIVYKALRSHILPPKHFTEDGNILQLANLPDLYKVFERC
Sequence of MutLgamma (MLH1-MLH3) (Q9UHC1 whole entry, chain 2 of 2): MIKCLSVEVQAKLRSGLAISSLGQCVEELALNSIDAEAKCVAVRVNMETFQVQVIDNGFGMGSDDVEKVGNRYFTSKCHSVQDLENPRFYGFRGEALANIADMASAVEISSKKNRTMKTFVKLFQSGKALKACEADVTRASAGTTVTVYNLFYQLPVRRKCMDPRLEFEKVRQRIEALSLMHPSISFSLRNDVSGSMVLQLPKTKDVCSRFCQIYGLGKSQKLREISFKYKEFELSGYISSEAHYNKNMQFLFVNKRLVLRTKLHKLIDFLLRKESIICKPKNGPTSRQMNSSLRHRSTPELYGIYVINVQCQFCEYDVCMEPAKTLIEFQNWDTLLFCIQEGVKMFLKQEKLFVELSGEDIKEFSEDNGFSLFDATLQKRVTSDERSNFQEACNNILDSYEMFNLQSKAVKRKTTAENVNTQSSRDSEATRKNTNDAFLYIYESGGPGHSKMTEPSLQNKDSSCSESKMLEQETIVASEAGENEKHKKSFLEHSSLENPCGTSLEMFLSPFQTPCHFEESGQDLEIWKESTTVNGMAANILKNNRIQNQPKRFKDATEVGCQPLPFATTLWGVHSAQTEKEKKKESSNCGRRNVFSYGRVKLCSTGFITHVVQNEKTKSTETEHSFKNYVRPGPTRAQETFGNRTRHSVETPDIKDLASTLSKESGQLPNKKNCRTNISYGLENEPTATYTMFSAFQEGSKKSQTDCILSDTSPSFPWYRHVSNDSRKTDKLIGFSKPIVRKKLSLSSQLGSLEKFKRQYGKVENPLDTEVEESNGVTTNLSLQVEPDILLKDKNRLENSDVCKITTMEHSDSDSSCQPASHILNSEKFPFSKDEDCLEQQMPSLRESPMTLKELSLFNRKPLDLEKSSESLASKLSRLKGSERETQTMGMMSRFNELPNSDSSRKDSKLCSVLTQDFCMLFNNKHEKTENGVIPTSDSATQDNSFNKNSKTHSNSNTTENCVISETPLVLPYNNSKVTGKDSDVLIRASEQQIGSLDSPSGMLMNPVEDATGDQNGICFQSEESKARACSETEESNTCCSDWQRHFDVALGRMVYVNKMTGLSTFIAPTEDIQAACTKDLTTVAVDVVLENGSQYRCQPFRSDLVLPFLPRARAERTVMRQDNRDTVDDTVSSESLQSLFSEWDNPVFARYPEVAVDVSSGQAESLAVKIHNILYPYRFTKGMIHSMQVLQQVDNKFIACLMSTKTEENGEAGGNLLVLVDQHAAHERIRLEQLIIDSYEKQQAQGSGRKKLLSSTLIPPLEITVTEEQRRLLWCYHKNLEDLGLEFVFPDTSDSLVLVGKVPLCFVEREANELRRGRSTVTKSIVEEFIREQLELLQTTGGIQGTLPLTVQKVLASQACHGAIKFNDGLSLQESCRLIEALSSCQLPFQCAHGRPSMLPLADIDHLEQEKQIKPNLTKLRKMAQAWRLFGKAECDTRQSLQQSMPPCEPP
Sequence of MutLbeta (MLH1-PMS1) (P40692 whole entry, chain 1 of 2): as the sequence (P40692 whole entry, chain 1 of 2) above
Sequence of MutLbeta (MLH1-PMS1) (P54277 whole entry, chain 2 of 2): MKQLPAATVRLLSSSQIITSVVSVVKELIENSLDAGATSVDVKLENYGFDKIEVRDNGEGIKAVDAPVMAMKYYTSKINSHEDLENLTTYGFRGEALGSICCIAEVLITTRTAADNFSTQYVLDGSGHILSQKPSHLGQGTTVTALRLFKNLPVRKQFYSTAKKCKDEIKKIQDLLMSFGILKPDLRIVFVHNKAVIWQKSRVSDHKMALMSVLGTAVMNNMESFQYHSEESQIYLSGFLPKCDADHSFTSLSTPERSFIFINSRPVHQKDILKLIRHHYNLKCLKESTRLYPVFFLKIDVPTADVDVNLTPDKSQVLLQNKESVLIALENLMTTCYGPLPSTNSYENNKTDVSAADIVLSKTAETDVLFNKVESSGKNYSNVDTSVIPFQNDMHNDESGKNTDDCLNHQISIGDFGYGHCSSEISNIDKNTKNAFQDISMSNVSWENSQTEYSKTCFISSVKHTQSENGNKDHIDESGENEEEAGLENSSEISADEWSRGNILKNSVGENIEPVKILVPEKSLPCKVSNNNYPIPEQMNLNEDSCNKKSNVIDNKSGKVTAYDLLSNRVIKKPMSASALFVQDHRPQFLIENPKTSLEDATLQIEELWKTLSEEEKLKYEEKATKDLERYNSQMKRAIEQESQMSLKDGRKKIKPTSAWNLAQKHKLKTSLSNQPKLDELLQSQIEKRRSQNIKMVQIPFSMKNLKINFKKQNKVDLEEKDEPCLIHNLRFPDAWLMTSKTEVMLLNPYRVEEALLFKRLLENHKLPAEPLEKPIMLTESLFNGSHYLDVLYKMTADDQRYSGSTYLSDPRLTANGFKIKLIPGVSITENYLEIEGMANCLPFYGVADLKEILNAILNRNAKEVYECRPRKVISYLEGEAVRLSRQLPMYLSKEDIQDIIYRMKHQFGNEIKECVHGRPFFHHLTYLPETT

B1: Holliday junction (PC1253/PC1254/PC1255/PC1256) (structured_DNA)
DNA 1: TGGGTCAACGTGGGCAAAGATGTCCTAGCAATGTAATCGTCTATGACGTT
DNA 2: TGCCGAATTCTACCAGTGCCAGTGATGGACATCTTTGCCCACGTTGACCC
DNA 3: GTCGGATCCTCTAGACAGCTCCATGATCACTGGCACTGGTAGAATTCGGC
DNA 4: CAACGTCACAGACGATTACATTGCTACATGGAGCTGTCTAGAGGATCCGA
binds: MutLgamma (MLH1-MLH3) | MutLbeta (MLH1-PMS1) | MutSbeta (MSH2-MSH3)
